Results from article PMC4837482, “The complex binding mode of the peptide hormone H2 relaxin to its receptor RXFP1” (Nature Communications, 2016).
Positions count from the first letter of the chain named.

Key:
RXFP1 G41A = biological target: T1, RXFP1 G41A (Homo sapiens, UniProt Q9HBX9, G63A); assay: cAMP activity assay (pCRE β-galactosidase reporter), transfected HEK293T cells; type: cell-based; details: construct G41A, ±s.e.m.
T1 construct: transiently transfected human embryonic kidney (HEK) 293T cells expressing full-length RXFP1 and mutants; expressed in transfected cells; host or cells: HEK293T
T1 sequence (Q9HBX9 23-757 G63A limits assumed): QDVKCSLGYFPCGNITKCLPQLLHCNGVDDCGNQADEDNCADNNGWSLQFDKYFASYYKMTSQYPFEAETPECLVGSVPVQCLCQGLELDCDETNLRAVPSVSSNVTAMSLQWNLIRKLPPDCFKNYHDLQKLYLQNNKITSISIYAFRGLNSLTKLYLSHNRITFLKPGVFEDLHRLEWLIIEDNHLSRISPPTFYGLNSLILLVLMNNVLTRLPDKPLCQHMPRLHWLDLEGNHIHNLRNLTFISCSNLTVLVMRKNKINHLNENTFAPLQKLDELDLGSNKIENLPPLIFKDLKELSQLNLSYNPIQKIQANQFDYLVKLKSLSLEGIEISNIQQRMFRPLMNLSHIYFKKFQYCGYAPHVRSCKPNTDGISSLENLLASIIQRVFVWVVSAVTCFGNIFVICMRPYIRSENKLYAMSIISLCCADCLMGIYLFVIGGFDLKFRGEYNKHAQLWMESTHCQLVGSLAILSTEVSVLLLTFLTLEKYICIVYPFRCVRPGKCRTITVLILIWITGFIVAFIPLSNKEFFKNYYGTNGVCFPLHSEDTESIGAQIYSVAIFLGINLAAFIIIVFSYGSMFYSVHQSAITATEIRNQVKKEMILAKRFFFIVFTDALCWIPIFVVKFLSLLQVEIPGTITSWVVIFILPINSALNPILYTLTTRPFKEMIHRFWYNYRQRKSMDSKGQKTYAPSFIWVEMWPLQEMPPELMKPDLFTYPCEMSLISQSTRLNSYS
Method: Media was aspirated and plates stored frozen at −80 °C overnight. […] H2 relaxin dilutions were prepared in minimal media containing 1% DMSO. Positive and negative control stimulations were achieved by incubation with 5 μM Forskolin and minimal media/1% DMSO, respectively. Plates were developed by 10 min of incubation in 25 μl of lysis buffer 1 (100 mM Na2HPO4, pH 8.0, 0.2 mM MgSO4 0.01 mM MnCl2); a further 10 min of incubation in 100 μl of buffer 2 (100 mM Na2HPO4, pH 8.0, 2 mM MgSO4, 0.1 mM MnCl2, 0.5% Triton X-100, 40 mM β-mercaptoethanol); then to each well 25 μl of the β-galactosidase substrate, chlorophenol red-β-D-galactopyranoside (Roche) was added. All incubation steps were conducted with orbital shaking. Color-change was monitored and readings were taken on a Benchmark Plus Microplate Reader (Bio-Rad) at 570 nm. A minimum of three separate experiments were performed, each of them in triplicate, and data were pooled and presented as percentages of the maximum response induced by 5 μM Forskolin±s.e.m.

RXFP1 G41D42-AA = biological target: T2, RXFP1 G41D42-AA (Homo sapiens, UniProt Q9HBX9, D64A/G63A); assay: Eu-H2 relaxin saturation binding assay, transfected HEK293T cells; details: construct G41D42-AA, maximum H2 concentration 15 nM
T2 construct: transiently transfected human embryonic kidney (HEK) 293T cells expressing full-length RXFP1 and mutants; expressed in transfected cells; host or cells: HEK293T
T2 sequence (Q9HBX9 23-757 G63A/D64A limits assumed): T1 sequence (Q9HBX9 23-757 G63A limits assumed) with D42A

RXFP1 F50A^ins = biological target: T3, RXFP1 F50A^ins (Homo sapiens, UniProt Q9HBX9, INS72A); assay: as above; details: F50A^Ins-RXFP1 versus wild-type RXFP1
T3 construct: transiently transfected human embryonic kidney (HEK) 293T cells expressing full-length RXFP1 and mutants; expressed in transfected cells; host or cells: HEK293T
T3 sequence (Q9HBX9 with tags, fused parts or gaps INS72A limits assumed): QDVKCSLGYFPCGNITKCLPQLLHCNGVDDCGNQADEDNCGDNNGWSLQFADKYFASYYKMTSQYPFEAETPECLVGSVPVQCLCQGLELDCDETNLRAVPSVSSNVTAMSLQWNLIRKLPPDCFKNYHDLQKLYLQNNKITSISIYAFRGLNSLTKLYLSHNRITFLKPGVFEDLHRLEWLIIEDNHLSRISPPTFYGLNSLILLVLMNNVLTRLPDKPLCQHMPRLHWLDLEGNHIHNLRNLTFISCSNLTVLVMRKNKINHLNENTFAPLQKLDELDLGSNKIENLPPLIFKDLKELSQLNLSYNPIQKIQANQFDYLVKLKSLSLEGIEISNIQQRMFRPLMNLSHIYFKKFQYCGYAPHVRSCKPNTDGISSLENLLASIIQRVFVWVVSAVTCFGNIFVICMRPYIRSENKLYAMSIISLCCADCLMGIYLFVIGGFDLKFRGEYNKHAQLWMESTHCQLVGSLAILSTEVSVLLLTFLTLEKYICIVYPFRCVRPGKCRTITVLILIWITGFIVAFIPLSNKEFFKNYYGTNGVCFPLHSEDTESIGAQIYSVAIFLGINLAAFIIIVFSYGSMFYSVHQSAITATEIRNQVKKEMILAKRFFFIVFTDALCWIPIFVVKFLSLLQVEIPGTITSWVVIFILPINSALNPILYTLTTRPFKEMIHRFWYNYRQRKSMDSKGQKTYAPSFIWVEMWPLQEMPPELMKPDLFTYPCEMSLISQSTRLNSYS

In the case of “H2 relaxin: two-chain 6-kDa peptide hormone structurally related to insulin; recombinant human gene-2 H2 relaxin provided by Corthera”, the “H2 relaxin pEC50” value (RXFP1 G41A; cAMP reporter) is reported as 11.13±0.1 (3), the “H2 relaxin Emax” value (RXFP1 G41A; percentage of maximum response to 5 μM Forskolin) is reported as 104.7±1.65 (3) % and the Kd (RXFP1 G41D42-AA) is reported as > 20 nM. The “loss of binding to H2 relaxin” value (RXFP1 F50A^ins) was 25 fold.
